Laboratory results as given in patent publication US6586658.

Target: FaoA-GUS fusion protein (UniProt P05804)
Chain of UniProt P05804 (P05804 whole entry, looked up, the tested form may be a part): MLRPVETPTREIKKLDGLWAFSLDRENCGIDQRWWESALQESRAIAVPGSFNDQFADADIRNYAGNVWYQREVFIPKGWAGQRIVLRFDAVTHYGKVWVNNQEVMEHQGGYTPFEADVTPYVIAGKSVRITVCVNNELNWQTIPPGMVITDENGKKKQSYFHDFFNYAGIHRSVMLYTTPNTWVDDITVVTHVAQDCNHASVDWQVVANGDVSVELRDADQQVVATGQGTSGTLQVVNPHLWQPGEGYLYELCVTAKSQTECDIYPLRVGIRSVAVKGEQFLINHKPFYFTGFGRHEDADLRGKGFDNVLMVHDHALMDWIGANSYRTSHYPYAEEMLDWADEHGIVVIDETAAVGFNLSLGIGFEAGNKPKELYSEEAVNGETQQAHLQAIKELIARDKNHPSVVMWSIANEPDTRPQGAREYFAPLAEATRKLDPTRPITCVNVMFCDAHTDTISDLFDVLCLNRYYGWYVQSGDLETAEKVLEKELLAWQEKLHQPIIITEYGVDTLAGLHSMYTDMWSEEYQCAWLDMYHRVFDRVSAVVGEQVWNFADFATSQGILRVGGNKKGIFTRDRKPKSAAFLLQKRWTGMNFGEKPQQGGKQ

FaoB polypeptide of the Pseudomonas putida FaoAB fatty acid oxidation multienzyme complex
GUS activity (pmol MU/min), OS fraction of flax zygotic embryos, pmfG138:pmf224 (1:1): 386 pmol MU/min
GUS activity (pmol MU/min), OS fraction of flax zygotic embryos, pmfG138:pmf224 (1:3): 440 pmol MU/min
GUS activity (pmol MU/min), SN fraction of flax zygotic embryos, pmfG138:pmf224 (1:1): 175 pmol MU/min
GUS activity (pmol MU/min), SN fraction of flax zygotic embryos, pmfG138:pmf224 (1:3): 214 pmol MU/min
GUS activity (pmol MU/min), total homogenate of B. napus microspore embryos co-bombarded with pmfG138:pmf224: 85 pmol MU/min
GUS activity in a GUS-FaoA fusion, transient expression in embryos: > 2 fold
GUS specific activity, Ara-FaoA-GUS:pha-FaoB against Ara-FaoA-GUS, background subtracted, B. napus microspore embryos: 2 fold
Specific activity (activity/mg prt), OS fraction of flax zygotic embryos, pmfG138:pmf224 (1:1) (activity/mg prt): 52.8
Specific activity (activity/mg prt), OS fraction of flax zygotic embryos, pmfG138:pmf224 (1:3) (activity/mg prt): 79
Specific activity (activity/mg prt), SN fraction of flax zygotic embryos, pmfG138:pmf224 (1:1) (activity/mg prt): 23.9
Specific activity (activity/mg prt), SN fraction of flax zygotic embryos, pmfG138:pmf224 (1:3) (activity/mg prt): 38.4
Specific activity (activity/mg prt), total homogenate of B. napus microspore embryos co-bombarded with pmfG138:pmf224 (activity/mg prt): 29.1
